Assay results: paper PMC6222107 (The Journal of Biological Chemistry, 2018)

Key:
[1] = system: CNC(Cc1ccc(O)c(O)c1)C(=O)O; test: steady-state oxygen depletion, oxygen sensor; assay type: biochemical, Aspergillus fumigatus; conditions: pH 7.6, 25 °C, 100 mM Tris/HCl, 150 mM NaCl, air-saturated (O2 co-substrate)
Description: (§1) steady-state oxygen depletion, oxygen sensor on FsqB

[2] = system: CN[C@@H](Cc1ccc(O)cc1)C(=O)O; test: steady-state oxygen depletion, oxygen sensor; assay type: biochemical, Aspergillus fumigatus; conditions: pH 7.6, 25 °C, 100 mM Tris/HCl, 150 mM NaCl, air-saturated (O2 co-substrate)
Description: as §1

[3] = system: CN[C@@H](Cc1ccc(O)c(O)c1)C(=O)O; test: steady-state oxygen depletion, oxygen sensor; assay type: biochemical, Aspergillus fumigatus; conditions: pH 7.6, 25 °C, 100 mM Tris/HCl, 150 mM NaCl, air-saturated (O2 co-substrate)
Description: as §1

[4] = system: CNC(Cc1cccc(O)c1)C(=O)O; test: steady-state oxygen depletion, oxygen sensor; assay type: biochemical, Aspergillus fumigatus; conditions: pH 7.6, 25 °C, 100 mM Tris/HCl, 150 mM NaCl, air-saturated (O2 co-substrate), error ± 0.6
Description: as §1

[5] = target: the molecule itself; test: crystal structure; hexagonal crystals (P6522), one chain in the asymmetric unit; dimer with a symmetry-related molecule by a crystallographic 2-fold axis, analysed with the EBI-Pisa server; 2.6 A

Molecule | Km [1] [µM] | kcat [1] [s⁻¹] | kcat/Km [1] [M⁻¹ s⁻¹] | Km [2] [µM] | kcat [2] [s⁻¹] | kcat/Km [2] [M⁻¹ s⁻¹] | Km [3] [µM] | kcat [3] [s⁻¹] | kcat/Km [3] [M⁻¹ s⁻¹] | Km [4] [µM] | kcat [4] [s⁻¹] | kcat/Km [4] [M⁻¹ s⁻¹] | binding result [5]
FsqB (Aspergillus fumigatus Af293) | 160 ± 10 | 8.5 ± 0.1 | 53000 ± 4000 | 2100 ± 200 | 3.9 ± 0.2 | 1910 ± 20 | 270 ± 20 | 8.2 ± 0.2 | 30000 ± 3000 | 1600 ± 200 | 3.5 ± 0.1 | 2180 ± 40 | –
FsqB (fumisoquin biosynthesis gene B product), flavoprotein of the amine oxidase family (enzyme, Aspergillus fumigatus, FAD covalently bound through its 8alpha-methyl group to Cys-414, FsqB of Aspergillus fumigatus, gene Afu6g03440, codon-optimized synthetic gene in pET21a; the domains described in the structure span residues 1-496; Molecular mass printed as 55 kDa; Dimer generated by a crystallographic 2-fold axis; one chain in the asymmetric unit; also called WT FsqB; Afu6g03440) MSIPNSFIIVGSGVFGLSLAYALSLDDRFADKKIILVDRWNFEPPNATGSVHNPAAANADTSRVIRRDYPHGPYASLALEAMKHWRGKFGENNRYVNQRLLFSGEGSSLTTPPKALETVNYIKKAYAISCELTPGGRDAVQVLDSLDEVRAFLGNTPSHPPHLPVNKDPAARDLRGYVSNDCGWADAGASIEWLRQEVLRLGRVECVVGEVESLVYSDDQRAVKGVKLVDGKVLTAELTVIAAGARSSHILGIPKLCDVYSEFVAYIQLTKEEADELRRRQWPILVNCHRGVFAVGPDHDNCLKFGHFSYSGIVDVLREASIQVPTRPDGWEAQQKYWSDPRFAFGGEVKVSALGDVDDYENPAAQRALADYRLFLLELLGPTGLQGVDTLGLDQSDNLLNNIANRPFTRVRKCWYNDTPALDFVVDYHPSYGKTLFVATGGCDHAFKFLPIIGEKTLALILRNRGDSAVSLPAGVEPSLEELSELWRFPVELLQDN | – | – | – | – | – | – | – | – | – | – | – | – | binds
